Results: US6872808 (CORVAS INTERNATIONAL, dated 2005)

Tests used:
rFVIIa/rTF/PLV complex [1] = target: T1, rFVIIa/rTF/PLV complex (human, UniProt P08709 61-466; P13726 33-295); assay: rFVIIa/rTF/PLV amidolytic assay (S-2288) plus 2.5 nM EGR-FXa; apparent Ki*
T1 construct: Complex formed in HBSA with CaCl2 on phosphatidyl choline/phosphatidyl serine vesicles; also called fVIIa/TF; FVIIa/TF

human Factor XIIa = target: T2, human Factor XIIa (human, UniProt P00748 20-615); assay: cell-based or functional assay
T2 sequence: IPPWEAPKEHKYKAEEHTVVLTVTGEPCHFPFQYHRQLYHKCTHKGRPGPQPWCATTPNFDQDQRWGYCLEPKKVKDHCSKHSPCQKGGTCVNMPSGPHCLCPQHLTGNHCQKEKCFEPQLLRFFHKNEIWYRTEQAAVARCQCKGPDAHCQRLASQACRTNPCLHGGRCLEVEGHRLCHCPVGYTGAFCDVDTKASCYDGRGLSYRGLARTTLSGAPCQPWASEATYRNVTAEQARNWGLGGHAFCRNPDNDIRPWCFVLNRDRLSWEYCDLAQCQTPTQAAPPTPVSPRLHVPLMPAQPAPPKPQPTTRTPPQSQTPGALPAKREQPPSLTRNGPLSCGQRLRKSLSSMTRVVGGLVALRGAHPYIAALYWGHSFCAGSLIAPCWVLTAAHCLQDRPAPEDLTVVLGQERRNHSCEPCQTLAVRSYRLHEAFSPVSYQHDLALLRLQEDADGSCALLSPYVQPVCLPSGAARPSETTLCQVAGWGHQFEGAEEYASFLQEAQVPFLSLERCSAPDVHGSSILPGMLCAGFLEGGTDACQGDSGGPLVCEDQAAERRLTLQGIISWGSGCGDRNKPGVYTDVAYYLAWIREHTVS

human kallikrein = human kallikrein (human, UniProt P03952 20-638); assay: cell-based or functional assay
human Factor XIa = human Factor XIa (human, UniProt P03951 19-625); assay: cell-based or functional assay
human plasmin = human plasmin (human, UniProt P00747 97-810); assay: cell-based or functional assay
[2] = target: bovine pancreatic chymotrypsin (bovine, UniProt P00766 1-245); assay: cell-based or functional assay
human urokinase = human urokinase (human, UniProt P00749 156-431); assay: cell-based or functional assay
human pancreatic trypsin = human pancreatic trypsin (human, UniProt P07477 24-247); assay: cell-based or functional assay
[3] = target: recombinant tissue plasminogen activator (human, UniProt P00750 36-562); assay: cell-based or functional assay
human factor Xa = human factor Xa (human, UniProt P00742 41-179; P00742 235-488); assay: cell-based or functional assay
[4] = target: human activated protein C (human, UniProt P04070 43-461); assay: cell-based or functional assay
human alpha-thrombin = human alpha-thrombin (human, UniProt P00734 328-622); assay: cell-based or functional assay
rFVIIa/rTF/PLV complex [5] = target: T1, rFVIIa/rTF/PLV complex; assay: rFVIIa/rTF/PLV amidolytic assay (S-2288), no FXa addition; apparent Ki*

T1 sequence (P08709 61-466 limits assumed, chain 1 of 2): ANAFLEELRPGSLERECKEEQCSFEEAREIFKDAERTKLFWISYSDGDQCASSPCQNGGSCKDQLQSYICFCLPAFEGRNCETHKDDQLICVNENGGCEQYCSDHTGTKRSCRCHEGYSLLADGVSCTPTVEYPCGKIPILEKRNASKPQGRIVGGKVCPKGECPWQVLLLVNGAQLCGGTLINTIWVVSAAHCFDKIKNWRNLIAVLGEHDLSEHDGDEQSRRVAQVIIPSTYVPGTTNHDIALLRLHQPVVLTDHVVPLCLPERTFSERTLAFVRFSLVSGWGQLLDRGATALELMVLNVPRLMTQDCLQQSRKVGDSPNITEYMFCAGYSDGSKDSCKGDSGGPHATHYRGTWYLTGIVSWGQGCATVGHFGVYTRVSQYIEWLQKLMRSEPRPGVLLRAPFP
T1 sequence (P13726 33-295 limits assumed, chain 2 of 2): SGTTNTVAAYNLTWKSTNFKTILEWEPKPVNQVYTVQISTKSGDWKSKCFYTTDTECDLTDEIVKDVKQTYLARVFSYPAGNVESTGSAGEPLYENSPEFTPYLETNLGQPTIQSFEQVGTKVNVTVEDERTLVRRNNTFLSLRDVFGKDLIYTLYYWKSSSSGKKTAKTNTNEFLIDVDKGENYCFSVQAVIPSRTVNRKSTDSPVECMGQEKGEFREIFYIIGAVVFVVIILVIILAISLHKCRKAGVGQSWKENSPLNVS
Sequence of human plasmin (P00747 97-810 limits assumed): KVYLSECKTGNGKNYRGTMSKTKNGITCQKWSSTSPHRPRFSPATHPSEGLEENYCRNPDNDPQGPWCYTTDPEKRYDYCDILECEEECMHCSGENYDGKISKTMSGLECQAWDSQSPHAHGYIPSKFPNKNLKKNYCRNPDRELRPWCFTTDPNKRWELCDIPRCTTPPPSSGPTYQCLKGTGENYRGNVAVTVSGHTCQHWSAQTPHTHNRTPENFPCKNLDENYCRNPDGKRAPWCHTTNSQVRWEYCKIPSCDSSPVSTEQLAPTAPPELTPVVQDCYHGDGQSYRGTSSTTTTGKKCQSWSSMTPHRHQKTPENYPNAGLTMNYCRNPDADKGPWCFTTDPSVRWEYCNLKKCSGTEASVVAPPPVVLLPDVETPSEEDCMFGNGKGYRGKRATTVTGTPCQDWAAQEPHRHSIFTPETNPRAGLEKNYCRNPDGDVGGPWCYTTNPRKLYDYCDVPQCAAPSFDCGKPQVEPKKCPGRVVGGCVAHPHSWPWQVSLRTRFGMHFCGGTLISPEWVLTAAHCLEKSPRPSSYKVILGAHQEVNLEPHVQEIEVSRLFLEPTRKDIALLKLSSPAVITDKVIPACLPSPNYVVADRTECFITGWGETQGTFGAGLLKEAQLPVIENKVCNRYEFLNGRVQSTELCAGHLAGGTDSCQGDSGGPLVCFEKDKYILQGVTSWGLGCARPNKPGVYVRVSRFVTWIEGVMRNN
Sequence of recombinant tissue plasminogen activator (P00750 36-562 limits assumed): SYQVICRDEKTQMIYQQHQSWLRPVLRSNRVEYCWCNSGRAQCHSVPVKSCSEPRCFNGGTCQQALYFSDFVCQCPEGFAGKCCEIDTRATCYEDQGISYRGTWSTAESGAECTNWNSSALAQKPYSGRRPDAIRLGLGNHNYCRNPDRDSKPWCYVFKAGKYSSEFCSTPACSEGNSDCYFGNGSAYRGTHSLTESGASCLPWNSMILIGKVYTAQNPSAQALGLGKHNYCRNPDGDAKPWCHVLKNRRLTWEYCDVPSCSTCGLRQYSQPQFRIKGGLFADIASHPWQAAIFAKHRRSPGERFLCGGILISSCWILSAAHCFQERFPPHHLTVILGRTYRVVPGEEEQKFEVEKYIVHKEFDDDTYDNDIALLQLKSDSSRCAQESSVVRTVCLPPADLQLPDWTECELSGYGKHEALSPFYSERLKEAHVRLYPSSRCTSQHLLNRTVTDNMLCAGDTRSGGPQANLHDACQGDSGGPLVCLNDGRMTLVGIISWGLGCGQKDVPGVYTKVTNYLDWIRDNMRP
Sequence of human factor Xa (P00742 41-179 limits assumed, chain 1 of 2): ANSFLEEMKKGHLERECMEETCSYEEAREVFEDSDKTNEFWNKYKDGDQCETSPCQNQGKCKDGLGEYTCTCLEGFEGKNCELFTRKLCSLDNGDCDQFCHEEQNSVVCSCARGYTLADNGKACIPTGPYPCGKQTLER
Sequence of human factor Xa (P00742 235-488 limits assumed, chain 2 of 2): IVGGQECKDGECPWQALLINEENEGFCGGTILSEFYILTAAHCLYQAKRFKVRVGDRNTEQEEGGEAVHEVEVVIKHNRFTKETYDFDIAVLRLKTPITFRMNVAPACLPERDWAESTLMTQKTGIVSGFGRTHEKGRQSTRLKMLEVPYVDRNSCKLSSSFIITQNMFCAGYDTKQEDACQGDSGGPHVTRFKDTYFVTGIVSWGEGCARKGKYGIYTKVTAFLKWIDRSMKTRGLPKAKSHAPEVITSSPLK
Sequence of human kallikrein (P03952 20-638 limits assumed): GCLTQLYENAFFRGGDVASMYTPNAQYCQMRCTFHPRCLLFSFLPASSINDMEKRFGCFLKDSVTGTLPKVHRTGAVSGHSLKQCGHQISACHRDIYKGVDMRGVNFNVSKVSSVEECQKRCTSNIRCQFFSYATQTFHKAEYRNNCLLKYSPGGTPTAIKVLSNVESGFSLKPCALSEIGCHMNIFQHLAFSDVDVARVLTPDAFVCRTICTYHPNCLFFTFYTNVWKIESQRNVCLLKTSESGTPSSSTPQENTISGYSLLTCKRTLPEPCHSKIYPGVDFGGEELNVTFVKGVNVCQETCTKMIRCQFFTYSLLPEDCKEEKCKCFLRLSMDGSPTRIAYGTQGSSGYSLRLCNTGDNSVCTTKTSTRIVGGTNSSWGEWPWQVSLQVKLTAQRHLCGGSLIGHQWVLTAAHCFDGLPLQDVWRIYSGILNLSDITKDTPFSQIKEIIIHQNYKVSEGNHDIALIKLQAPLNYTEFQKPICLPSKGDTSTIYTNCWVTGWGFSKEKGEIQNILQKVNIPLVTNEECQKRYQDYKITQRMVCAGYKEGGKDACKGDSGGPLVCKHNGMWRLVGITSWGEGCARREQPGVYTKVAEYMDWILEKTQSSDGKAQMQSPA

B1: recombinant AceNAP4 (other)
chain: KPNNVMTNACGLNEYFAECGNMKECEHRCNEEENEERDEERITACLIRVCFRPGACVCKDGFYRNRTGSCVEEDDCEYENMEFITFAPEVPICGSNERYSDCGNDKQCERKCNEDDYEKGDEACRSHVCERPGACVCEDGFYRNKKGSCVESDDCEYDNMDFITFAPETSR
notes: Two NAP domains
Ki (rFVIIa/rTF/PLV complex [1]): 0.378 nM
% Control Velocity (amidolytic activity; 75 nM NAP, 750 pM enzyme) (human Factor XIIa): 102%
% Control Velocity (amidolytic activity; 75 nM NAP, 750 pM enzyme) (human kallikrein): 32%
% Control Velocity (amidolytic activity; 75 nM NAP, 750 pM enzyme) (human Factor XIa): 96%
% Control Velocity (amidolytic activity; 75 nM NAP, 750 pM enzyme) (human plasmin): 100%
% Control Velocity (amidolytic activity; 75 nM NAP, 750 pM enzyme) [2]: 96%
% Control Velocity (amidolytic activity; 75 nM NAP, 750 pM enzyme) (human urokinase): 103%
% Control Velocity (amidolytic activity; 75 nM NAP, 750 pM enzyme) (human pancreatic trypsin): 98%
% Control Velocity (amidolytic activity; 75 nM NAP, 750 pM enzyme) [3]: 108%
% Control Velocity (amidolytic activity; 75 nM NAP, 750 pM enzyme) (human factor Xa): 76%
% Control Velocity (amidolytic activity; 75 nM NAP, 750 pM enzyme) [4]: 103%
% Control Velocity (amidolytic activity; 75 nM NAP, 750 pM enzyme) (human alpha-thrombin): 93%
Ki (rFVIIa/rTF/PLV complex [5]): 59.2 nM
